Laboratory results: paper PMC2576301, “The crystal structure of the catalytic domain of a eukaryotic guanylate cyclase” (BMC Structural Biology, 2008)

Experiments:
[1] = molecular target: catalytic domain of the soluble guanylate cyclase CYG12 from Chlamydomonas reinhardtii (Chlamydomonas reinhardtii); test: crystal structure; sitting-drop vapor diffusion, 20°C; 0.1 M sodium cacodylate pH 5.0-6.4, 42-62% saturated (NH4)2HPO4; molecular replacement; 2.55 Å; one dimer per asymmetric unit
[2] = substrate: Nc1nc2c(ncn2[C@@H]2O[C@H](COP(=O)(O)OP(=O)(O)OP(=O)(O)O)[C@@H](O)[C@H]2O)c(=O)[nH]1; test: cGMP formation, enzyme immunoassay; Hill fit; type: biochemical, Chlamydomonas reinhardtii; conditions: 4 mM MnCl2, pH 7.5, 24 °C, 5 mM dithiothreitol, 2 min, positive cooperativity, Hill coefficient 1.49 ± 0.16

| stoichiometry N [1] | Molecule | K0.5 [2] [µM] |
| --- | --- | --- |
| 2 | catalytic domain of the soluble guanylate cyclase CYG12 from Chlamydomonas reinhardtii (domain or fragment) | – |
| – | guanylate cyclase catalytic domain of CYG12 (Chlamydomonas reinhardtii) (protein, catalytic domain, residues 468-655 of 991; His-SMT3 (SUMO) fusion cleaved off; expressed in E. coli Tuner(DE3); homodimer) APAQEHPEATVLFSDIVGFTEIASRSSPLEVCSLLDELYQRFDAAIEEYPQLYKVETIGDAYMVVCNVTVPCDDHADVLLEFALRMHEEASRVASSLGEPVRIRVGMHSGPVVAGVVGRKMPRFCLFGDTVNTASRMESHGEAGQIHISEACYCCLRSKERFEIRERGNITVKGKGTMRTYLLSPLER | 269 ± 26 |
